In the supplement of paper PMC7877785:
± gives the uncertainty stated by the source.

Experiment: self-splicing fitness, log relative to wild type (ln ratio); higher = more splicing; Tetrahymena group I intron in knt gene, E. coli kanamycin selection, DiMSum; sequences stand for … in CUCUCU…GGAGGGAAAAGUUAUCAGGCAUGCACCUGGUAGCUAGUCUUUAAACCAAUAGAUUGCAUCGGUUUAAAAGGCAAGACCGUCAAAUUGCGGGAAAGGGGUCAACAGCCGUUCAGUACCAAGUCUCAGGGGAAACUUUGAGAUGGCCUUGCAAAGGGUAUGGUAAUAAGCUGACGGACAUGGUCCUAACCACGCAGCCAAGUCCUAAGUCAACAGAUCUUCUGUUGAUAUGGAUGCAGUUCACAGACUAAAUGUCGGUCGGGGAAGAUGUAUUCUUCUCAUAAGAUAUAGUCGGACCUCUCCUUAAUGGGAGCUAGCGGAUGAAGUGAUGCAACACUGGAGCCGCUGGGAACUAAUUUGUAUGCGAAAGUAUAUUGAUUAGUUUUGGAGUACUCGUGGUCG
Method in brief: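 The eight P1ex-region nucleotides of an intron in the knt kanamycin-resistance gene on pET-22b(+) were all randomised and the library put into E. coli BL21(DE3). Six replicate transformations were grown overnight at 37°C or 30°C on LB agar with or without 25 μg/mL kanamycin, together with 100 μg/mL carbenicillin, 50 μM IPTG and 0.2% rhamnose. Colonies were pooled and amplicon-sequenced on an Illumina HiSeq 2500. Fitness from DiMSum is the error-weighted combination of wild-type-normalised replicate fold changes, kanamycin over none.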

Row | Sequence | self-splicing fitness (ln) (30 °C) | self-splicing fitness (ln) (37 °C)
1 | AGCUAGCAAUAUUACGCGAA | -3.09 ± 0.23 | -1.24 ± 0.22
2 | AUGCAGCAAUAUUACGGCCC | -0.0496 ± 0.14 | 0.777 ± 0.19
3 | CCGUAGCAAUAUUACGUUUA | -3.43 ± 0.44 | -3.04 ± 0.4
4 | ACCUAGCAAUAUUACGACGG | -1.3 ± 0.089 | -0.541 ± 0.14
5 | CUUAAGCAAUAUUACGGGUA | -2.7 ± 0.22 | -2.75 ± 0.38
6 | UUUUAGCAAUAUUACGGGCA | -1.86 ± 0.39 | -0.575 ± 0.27
7 | CACUAGCAAUAUUACGCACC | -2.29 ± 0.18 | -0.458 ± 0.19
8 | CGCGAGCAAUAUUACGCACG | – | -2.14 ± 0.46
9 | UGCUAGCAAUAUUACGACCG | -0.534 ± 0.17 | -0.458 ± 0.19
10 | UCAGAGCAAUAUUACGGUUU | -3.76 ± 0.28 | -2.07 ± 0.18
11 | GGUAAGCAAUAUUACGGAUG | -3.57 ± 0.34 | -2.09 ± 0.18
12 | CGGAAGCAAUAUUACGUAAG | -0.619 ± 0.072 | 0.241 ± 0.1
13 | UGACAGCAAUAUUACGCGGU | -3.56 ± 0.19 | -2.68 ± 0.19
14 | GGGGAGCAAUAUUACGUGUA | -3.7 ± 0.31 | -2.23 ± 0.22
15 | CAAAAGCAAUAUUACGAUUG | -2.75 ± 0.087 | -1.82 ± 0.1
16 | GUGCAGCAAUAUUACGAAUU | -1.43 ± 0.091 | -0.441 ± 0.12
17 | AGGGAGCAAUAUUACGGUUA | -2.53 ± 0.17 | -2.98 ± 0.28
18 | ACCAAGCAAUAUUACGCCCA | -1.06 ± 0.13 | -0.545 ± 0.17
19 | UGAUAGCAAUAUUACGACUC | -3.07 ± 0.21 | -1.46 ± 0.18
20 | CCUUAGCAAUAUUACGUCGU | -3.7 ± 0.25 | -2.13 ± 0.22
21 | UGUUAGCAAUAUUACGAGCC | -2.39 ± 0.22 | -0.493 ± 0.17
22 | UAGAAGCAAUAUUACGUGUG | -0.994 ± 0.069 | -0.74 ± 0.084
23 | CUGGAGCAAUAUUACGAUGU | -3.26 ± 0.16 | -2.97 ± 0.23
24 | UGCCAGCAAUAUUACGGAAA | -1.8 ± 0.1 | -0.0875 ± 0.13
25 | ACCGAGCAAUAUUACGGGGG | -3.8 ± 0.18 | -3.18 ± 0.2
26 | CUCUAGCAAUAUUACGUCAA | -4.19 ± 0.29 | -3.45 ± 0.25

Row | Sequence | self-splicing fitness (ln) (30 °C) | self-splicing fitness (ln) (37 °C)
27 | GCCUAGCAAUAUUACGGCCC | -3.4 ± 0.48 | -0.535 ± 0.27
28 | GUUAAGCAAUAUUACGUUCU | -1.03 ± 0.085 | -0.445 ± 0.091
29 | AACCAGCAAUAUUACGACAU | -0.243 ± 0.01 | 0.152 ± 0.031
30 | CUCCAGCAAUAUUACGGCAA | -3.55 ± 0.17 | -2.71 ± 0.16
31 | CUAGAGCAAUAUUACGACUC | – | -1.39 ± 0.48
32 | CUGCAGCAAUAUUACGGGAG | -2.74 ± 0.11 | -1.79 ± 0.12
33 | AUGCAGCAAUAUUACGGGUA | -1.56 ± 0.13 | -1.12 ± 0.14
34 | CUACAGCAAUAUUACGGCUC | -3.53 ± 0.23 | -1.8 ± 0.31
35 | UUAAAGCAAUAUUACGACGA | 0.0585 ± 0.12 | 0.0349 ± 0.12
36 | CAAUAGCAAUAUUACGGAGG | -1.16 ± 0.07 | -1.26 ± 0.11
37 | AGUAAGCAAUAUUACGAAGG | -3.7 ± 0.2 | -2.07 ± 0.26
38 | UAAUAGCAAUAUUACGUCGG | -2.21 ± 0.11 | -1.49 ± 0.14
39 | AAGUAGCAAUAUUACGAUCC | -0.772 ± 0.19 | -0.304 ± 0.29
40 | AUAAAGCAAUAUUACGAGCC | -0.929 ± 0.14 | -1.35 ± 0.19
41 | CGAAAGCAAUAUUACGUUCG | -3.44 ± 0.14 | -2.62 ± 0.15
42 | UUCCAGCAAUAUUACGUAAA | -0.607 ± 0.086 | 0.616 ± 0.12
43 | GGGUAGCAAUAUUACGUCCG | -0.212 ± 0.15 | -0.15 ± 0.19
44 | UCGGAGCAAUAUUACGUAAA | -3.16 ± 0.31 | -1.55 ± 0.29
45 | CAUCAGCAAUAUUACGCAGC | -3.35 ± 0.14 | -1.29 ± 0.12
46 | GGAGAGCAAUAUUACGUAGG | -3.43 ± 0.25 | -0.82 ± 0.25
47 | CGCUAGCAAUAUUACGAUGG | -0.85 ± 0.075 | 0.251 ± 0.083
48 | AGCCAGCAAUAUUACGAACU | -0.257 ± 0.11 | 0.407 ± 0.14
49 | CACUAGCAAUAUUACGGCGU | -1.8 ± 0.12 | -0.74 ± 0.11
50 | UUCUAGCAAUAUUACGGUAG | -2.29 ± 0.23 | -3.15 ± 0.37
51 | UUACAGCAAUAUUACGCUAA | -2.01 ± 0.13 | -0.87 ± 0.11
52 | GGGCAGCAAUAUUACGCCCG | -2.33 ± 0.23 | –

Row | Sequence | self-splicing fitness (ln) (30 °C) | self-splicing fitness (ln) (37 °C)
53 | CGCGAGCAAUAUUACGGGCC | -2.71 ± 0.27 | –
54 | UCCGAGCAAUAUUACGCCAU | -2.56 ± 0.28 | -3.16 ± 0.4
55 | CACGAGCAAUAUUACGCCCA | -1.81 ± 0.4 | -1.72 ± 0.28
56 | GGCUAGCAAUAUUACGCUUA | -0.872 ± 0.1 | -0.117 ± 0.11
57 | AAGUAGCAAUAUUACGAACA | -1.1 ± 0.13 | -0.811 ± 0.18
58 | AAGGAGCAAUAUUACGCUAG | -2.17 ± 0.2 | –
59 | GUCCAGCAAUAUUACGAUCG | -1.8 ± 0.14 | -1.54 ± 0.14
60 | GGCUAGCAAUAUUACGGGGA | -2.17 ± 0.17 | -1.25 ± 0.17
61 | UAUAAGCAAUAUUACGCGCG | -0.131 ± 0.11 | -0.655 ± 0.14
62 | UGUUAGCAAUAUUACGUAAG | -0.949 ± 0.097 | -0.452 ± 0.14
63 | GAUCAGCAAUAUUACGGAUC | -2.99 ± 0.2 | -2.49 ± 0.36
64 | GUCUAGCAAUAUUACGACGA | -1.86 ± 0.18 | -0.293 ± 0.16
65 | UCGAAGCAAUAUUACGGCCG | -0.31 ± 0.18 | 0.0326 ± 0.34
66 | CCCAAGCAAUAUUACGAUAC | -3.63 ± 0.46 | –
67 | CGGAAGCAAUAUUACGUACU | -0.218 ± 0.071 | -0.296 ± 0.096
68 | AUGUAGCAAUAUUACGAAUG | -2.89 ± 0.28 | -2.37 ± 0.29
69 | AUUCAGCAAUAUUACGUUGC | -2.72 ± 0.23 | -2.52 ± 0.3
70 | ACAUAGCAAUAUUACGAGGU | -3.59 ± 0.16 | -3.3 ± 0.15
71 | ACUUAGCAAUAUUACGGUAU | -3.18 ± 0.12 | -2.5 ± 0.13
72 | UACGAGCAAUAUUACGCGGC | -3.65 ± 0.37 | -2.28 ± 0.28
73 | AAAGAGCAAUAUUACGAUCU | -1.42 ± 0.12 | -0.518 ± 0.12
74 | UUCUAGCAAUAUUACGCUGA | -1.04 ± 0.31 | -0.752 ± 0.25
75 | CAAUAGCAAUAUUACGGAGU | -4.14 ± 0.43 | -2.04 ± 0.25
76 | AGUGAGCAAUAUUACGCGGC | -3.16 ± 0.44 | –
77 | CAGAAGCAAUAUUACGGCAG | -0.0496 ± 0.063 | 0.33 ± 0.083
